Experiment [1] has as its target T1, human FcγRIIaR extracellular domain, C-terminal His-tag (human, UniProt P12318 34-217).
T1 construct: also called human FcγRIIa (type R); FcgRIIaR; not shown: His-tag added to C-terminus
T1 chain: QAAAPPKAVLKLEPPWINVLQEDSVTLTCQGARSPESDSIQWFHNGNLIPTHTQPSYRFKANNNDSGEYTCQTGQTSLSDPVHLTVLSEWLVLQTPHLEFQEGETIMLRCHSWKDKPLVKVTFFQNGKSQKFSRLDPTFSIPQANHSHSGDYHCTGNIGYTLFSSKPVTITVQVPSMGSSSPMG
Description: SPR (BIACORE); KD of SG1 / KD of variant.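 Further: relative to parent M103205H795-SG1 carrying the SG1 human heavy chain constant region.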 For orientation: In SPR one partner is held on a chip, and binding of the other changes the refractive index at the surface.

Experiment [2] has as its target T2, cynomolgus monkey FcγRIIa2 extracellular domain, C-terminal His-tag (cynomolgus monkey).
T2 construct: also called cyno FcγRIIa2; cynoFcgRIIa2; not shown: His-tag added to C-terminus
T2 chain: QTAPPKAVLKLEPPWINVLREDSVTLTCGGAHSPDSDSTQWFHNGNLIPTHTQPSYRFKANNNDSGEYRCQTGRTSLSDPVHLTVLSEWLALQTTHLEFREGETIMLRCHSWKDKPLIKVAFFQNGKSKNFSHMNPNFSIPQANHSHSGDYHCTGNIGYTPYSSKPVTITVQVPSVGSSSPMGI
Description: SPR (BIACORE); KD of SG1 / KD of variant.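 Further: relative to parent M103205H795-SG1 carrying the SG1 human heavy chain constant region.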

Experiment [3] concerns the target T3, cynomolgus monkey FcγRIIa3 extracellular domain, C-terminal His-tag (cynomolgus monkey).
T3 construct: also called cyno FcγRIIa3; cynoFcgRIIa3; not shown: His-tag added to C-terminus
T3 chain: T2 chain with K127I, N130K, H133P, Q142R
Description: SPR (BIACORE); KD of SG1 / KD of variant.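 Further: relative to parent M103205H795-SG1 carrying the SG1 human heavy chain constant region.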

The target in experiment [4] is T4, cynomolgus monkey FcγRIIIaS extracellular domain, C-terminal His-tag (cynomolgus monkey, UniProt A3RFZ7 21-206 (rhesus entry)).
T4 construct: also called cyno FcγRIIIaS; cynoFcγRIIIaS; not shown: His-tag added to C-terminus
Put plainly: SPR (BIACORE); KD of SG1 / KD of variant.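 Further: relative to parent M103205H795-SG1 carrying the SG1 human heavy chain constant region.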

The target in experiment [5] is T5, human FcγRIIb extracellular domain, C-terminal His-tag (human, UniProt P31994 43-217).
T5 construct: also called humanFcgRIIb; not shown: His-tag added to C-terminus
T5 sequence: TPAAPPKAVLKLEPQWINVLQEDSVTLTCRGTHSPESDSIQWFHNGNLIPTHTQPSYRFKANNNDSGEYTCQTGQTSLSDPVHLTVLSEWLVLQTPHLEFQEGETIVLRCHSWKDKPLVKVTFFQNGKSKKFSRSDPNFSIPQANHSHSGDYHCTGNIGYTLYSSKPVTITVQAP
Put plainly: SPR (BIACORE); KD of SG1 / KD of variant.

For experiment [6], the target named is T6, cynomolgus monkey FcγRIIa1 extracellular domain, C-terminal His-tag (cynomolgus monkey).
T6 construct: also called cyno FcγRIIa1; cynoFcgRIIa1; not shown: His-tag added to C-terminus
T6 chain: T2 chain with T95P, A121T, K127I, S128A, N130K, N135D, Q142R
Put plainly: SPR (BIACORE), antibody captured, FcγR analyte. The method, then: (§1) The kinetic analysis of interactions between these antibodies and FcγR was carried out using BIACORE® T200 or BIACORE® 4000 (GE Healthcare). HBS-EP+ (GE Healthcare) was used as the running buffer, and the measurement temperature was set to 25° C. A chip produced by immobilizing Protein A. Protein A/G or mouse anti-human IgG kappa light chain (BD Biosciences) onto a Series S Sensor Chip CM4 or CM5 (GE Healthcare) by the amine-coupling method was used. […] After the measurement, the antibody captured on the chip was washed off by allowing reaction with 10 mM glycine-HCl, pH1.5 and 25 mM NaOH so that the chip was regenerated and used repeatedly. The sensorgrams obtained as measurement results were analyzed by the 1:1 Langmuir binding model using the BIACORE® Evaluation Software to calculate the binding rate constant ka (L/mol/s) and dissociation rate constant kd (l/s), and the dissociation constant KD (mol/L) was calculated from these values. […] Regarding such interactions, KD values were calculated using the following 1:1 binding model described in BIACORE® T100 Software Handbook BR1006-48 Edition AE.
(§2) The behavior of interacting molecules according to the 1:1 binding model on BIACORE® can be described by Equation 1: Req=C·R max/(KD+C)+RI, wherein, Req is a plot of steady-state binding levels to analyte concentration. C is concentration, RI is bulk refractive index contribution in the sample, and Rmax is analyte binding capacity of the surface. When this equation is rearranged, KD can be expressed as Equation 2: KD=C·Rmax/(Req−RI)−C. KD can be calculated by substituting the values of Rmax, RI, and C into Equation 1 or Equation 2. From the current measurement conditions, RI=0, C=2 μmol/L can be used.

For experiment [7], the target named is T1, human FcγRIIaR extracellular domain, …. Put plainly: SPR (BIACORE), antibody captured, FcγR analyte. The method, then: as §1, §2
In experiment [8] the target is T2, cynomolgus monkey FcγRIIa2 …. Put plainly: SPR (BIACORE), antibody captured, FcγR analyte. The method, then: as §1, §2
Experiment [9] concerns the target T3, cynomolgus monkey FcγRIIa3 …. Put plainly: SPR (BIACORE), antibody captured, FcγR analyte. The method, then: as §1, §2
Experiment [10] deals with T5, human FcγRIIb extracellular domain, …. Description: SPR (BIACORE), antibody captured, FcγR analyte. How it is done: as §1, §2
The target of experiment [11] is T7, human FcγRIIIaV extracellular domain, C-terminal His-tag (human, UniProt P08637 17-208).
T7 construct: also called FcgRIIIaV; not shown: His-tag added to C-terminus
Description: SPR (BIACORE), antibody captured, FcγR analyte. How it is done:
as §1, §2

Numbering of substitutions follows the chain as printed. Numbers in names are those of the source.

T4 sequence (A3RFZ7 21-206): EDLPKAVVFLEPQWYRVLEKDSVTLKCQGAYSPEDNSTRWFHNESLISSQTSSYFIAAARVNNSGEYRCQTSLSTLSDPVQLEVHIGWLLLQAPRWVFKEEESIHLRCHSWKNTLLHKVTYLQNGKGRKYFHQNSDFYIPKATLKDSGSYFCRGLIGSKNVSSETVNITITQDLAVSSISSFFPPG
T7 sequence (P08637 17-208 F176V): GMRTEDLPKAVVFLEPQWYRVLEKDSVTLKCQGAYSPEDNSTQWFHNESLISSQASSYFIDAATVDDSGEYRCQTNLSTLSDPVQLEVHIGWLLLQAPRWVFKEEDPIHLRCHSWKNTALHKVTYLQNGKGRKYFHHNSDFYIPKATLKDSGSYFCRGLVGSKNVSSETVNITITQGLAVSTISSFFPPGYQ

B1: M103205H795-MY335 / M103202L889-SK1 (antibody, human IgG1, kappa)
heavy: QVTLKESGPVLVKPTETLTLTCTVSGIDLSHDDISWVRQAPGKGLEWVGIISYAGSTYYASWAKGRLTISKDTSKNQVVLTMTNMDPVDTATYYCARGVPAYSHGGDLWGQGTLVTVSSASTKGPSVFPLAPSSKSTSGGTAALGCLVKDYFPEPVTVSWNSGALTSGVHTFPAVLQSSGLYSLSSVVTVPSSSLGTQTYICNVNHKPSNTKVDKKVEPKSCDKTHTCPPCPAPELLTGPSVFLFPPKPKDTLMISRTPEVTCVVVDVSDEDPEVKFNWYVDGVEVHNAKTKPREEQYNSTYRVVSVLTVLHRDWLNGKEYKCKVSNKALPKPIEKTISKAKGQPREPQVYTLPPSREEMTKNQVSLTCLVKGFYPSDIAVEWESNGQPENNYKTTPPVLDSDGSFFLYSKLTVKKSRWQQGNVFSCSVMHEALHNHYTQKSLSLSP
light: DIVMTQSPATLSLSPGERATLSCTSSQSVYHANWLSWFQQKPGQPPKLLIYWASTLAYGVPSRFSGSGSGTDFTLTISSLQPEDAATYYCAGGYGGGRYAFGQGTKVEIKRTVAAPSVFIFPPSDEQLKSGTASVVCLLNNFYPREAKVQWKVDNALQSGNSQESVTEQDSKDSTYSLSSTLTLSKADYEKHKVYACEVTHQGLSSPVTKSFNRGEC
notes: CH with G236T/H268D/Q311R/A330K/D413K against SG1 (EU numbering); also called MS1032LO06-MY335
B1: the “KD fold (SG1 = 1)” value in [1] stood at 3.8 fold; in experiment [2], 3 fold; in experiment [3], 6.3 fold; in experiment [4], 0.24 fold; in [5] it was 2 fold. In addition, the Kd in [6] was determined as 2000 nM; in experiment [7] it was 290 nM; in experiment [8], 1700 nM; in experiment [9], 2700 nM; in experiment [10] it was 2300 nM; in experiment [11] it was 5000 nM.

B2: M103205H795-MY351 / M103202L889-SK1 (antibody, human IgG1, kappa)
heavy: B1 heavy with T238N
light: B1 light
notes: CH with G236N/H268D/Q311R/A330K/D413K against SG1 (EU numbering); also called MS1032LO06-MY351
As for B2, the “KD fold (SG1 = 1)” value in experiment [1] was 0.7 fold; in experiment [2] it was 6.7 fold; in [3] it was 8.9 fold; in experiment [4] it was 0.07 fold; in experiment [5] it was 3.8 fold. Moreover, the Kd in experiment [6] was 920 nM; in [7], 1800 nM; in experiment [8], 760 nM; in experiment [9], 1900 nM; in experiment [10], 1200 nM; in experiment [11], 14000 nM.

B3: M103205H795-MY344 / M103202L889-SK1 (antibody, human IgG1, kappa)
heavy: B1 heavy with T238N, Q297L
light: B1 light
notes: CH with G236N/H268D/Q295L/Q311R/A330K/D413K against SG1 (EU numbering); also called MS1032LO06-MY344
In the case of B3, the “KD fold (SG1 = 1)” value in [1] worked out at 0.9 fold; in experiment [2] it was 4.6 fold; in experiment [3] it was 7.7 fold; in experiment [4], 0.07 fold; in experiment [5], 6.4 fold. Further, the Kd in experiment [6] came out at 890 nM; in experiment [7], 1200 nM; in [8] it was 1100 nM; in experiment [9] it was 2200 nM; in experiment [10], 720 nM; in [11], 19000 nM.

B4: M103205H795-PK2 / M103202L889-SK1 (antibody, human IgG1, kappa)
heavy: B1 heavy with T238N, D270E, R313Q, P398M, S402R
light: B1 light
notes: CH with G236N/H268E/A330K/P396M/S400R/D413K against SG1 (EU numbering); also called MS1032LO06-PK2; MS103205H795-PK2
With B4, the “KD fold (SG1 = 1)” value in experiment [1] is 1 fold; in experiment [2], 3.9 fold; in experiment [3], 4.5 fold; in [4], 0.09 fold; in experiment [5], 7.8 fold. Further, the Kd was found to be 1300 nM in [6]; 1100 nM in [7]; 1300 nM in [8]; 3800 nM in experiment [9]; 590 nM in experiment [10]; 13000 nM in [11].

What is called Kd is a measure of binding affinity in units of concentration.

The values are drawn from patent publication US20200317768A1 (published 2020).
